How the values were obtained:
[1] = target: T1, Crosstide GRPRTSSFAEG
T1 chain: GRPRTSSFAEG

[2] = target: GSK3-α partially purified from rabbit skeletal muscle
[3] = target: GSK3-β partially purified from rabbit skeletal muscle, A0A5F9
Sequence of GSK3-β partially purified from rabbit skeletal muscle, A0A5F9 (A0A5F9 entry or part of it): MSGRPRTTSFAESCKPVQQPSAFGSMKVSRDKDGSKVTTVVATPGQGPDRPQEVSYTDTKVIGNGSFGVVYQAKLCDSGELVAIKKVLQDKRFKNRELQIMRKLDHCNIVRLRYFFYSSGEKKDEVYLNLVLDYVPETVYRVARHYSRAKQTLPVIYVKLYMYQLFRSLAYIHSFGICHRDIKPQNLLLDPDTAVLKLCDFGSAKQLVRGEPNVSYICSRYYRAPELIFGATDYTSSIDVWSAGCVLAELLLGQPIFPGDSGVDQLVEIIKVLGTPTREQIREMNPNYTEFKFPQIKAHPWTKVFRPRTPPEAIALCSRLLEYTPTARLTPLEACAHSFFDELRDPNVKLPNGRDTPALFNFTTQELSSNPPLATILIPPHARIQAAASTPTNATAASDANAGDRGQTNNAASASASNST

B1: RAC-PK immunoprecipitated or chromatographed from insulin-stimulated L6 myotubes (protein)
chain: MNDVAIVKEGWLHKRGEYIKTWRPRYFLLKNDGTFIGYKERPQDVEQRESPLNNFSVAQCQLMKTERPRPNTFIIRCLQWTTVIERTFHVETPEEREEWTTAIQTVADGLKRQEEETMDFRSGSPSDNSGAEEMEVALAKPKHRVTMNEFEYLKLLGKGTFGKVILVKEKATGRYYAMKILKKEVIVAKDEVAHTLTENRVLQNSRHPFLTALKYSFQTHDRLCFVMEYANGGELFFHLSRERVFSEDRARFYGAEIVSALDYLHSEKNVVYRDLKLENLMLDKDGHIKITDFGLCKEGIKDGATMKTFCGTPEYLAPEVLEDNDYGRAVDWWGLGVVMYEMMCGRLPFYNQDHEKLFELILMEEIRFPRTLGPEAKSLLSGLLKKDPTQRLGGGSEDAKEIMQHRFFANIVWQDVYEKKLSPPFKPQVTSETDTRYFDEEFTAQMITITPPDQDDSMECVDSERRPHFPQFSYSASGTA
site of phosphorylation in Crosstide [1]: Akt/RAC phosphorylated the Ser in the Crosstide equivalent to Ser21 in GSK3-α and Ser9 in GSK3-β (data not shown) | GSK3 activity after incubation with MgATP and RAC-PK [2]: RAC-PK from insulin-stimulated L6 myotubes (but not from unstimulated or wortmannin-treated cells) inactivated GSK3-α and GSK3-β in vitro | GSK3 activity after incubation with MgATP and RAC-PK [3]: RAC-PK from insulin-stimulated L6 myotubes (but not from unstimulated or wortmannin-treated cells) inactivated GSK3-α and GSK3-β in vitro | site of in vitro phosphorylation (tryptic peptide, solid-phase sequencing) [3]: the third residue of these, corresponding to Ser9 (GSK3-β) or Ser21 (GSK3-α), was the site of phosphorylation in each phosphopeptide
